Laboratory results taken from patent US20230192860A1 (Bristol-Myers Squibb, published 2023).
Where a chain is given by its changes, count along the chain named. Names and notes keep the numbering of the source. Values belong to the binder of their own block, whether it stands above or below them.

Columns and labels:
[1] = target: T1, monovalent hVISTA-ECD (amino acids 32-193 of SEQ ID NO: 1 with a 7xHis tail) (human, UniProt Q9H7M9 33-193); test: SPR, Ab on Protein A, hVISTA 100-7.8 nM, pH 7.4 (second row of this ligand)
T1 construct: analyte of the SPR assays; also called huVISTA-His; human VISTA-ECD

[2] = target: T1, monovalent hVISTA-ECD (amino acids …); test: SPR, pH 7.4 over pH 6.0
Method: (§1) Further binding kinetic experiments were performed at various pHs on VISTA antibodies described herein by SPR as generally described in Example 9 above. Antibodies were normalized to 50 nM concentration in PBST pH 7.4 and captured on a Protein A CM5 chip (ID 4931) by injecting for 45 seconds at a 5 µL/min flow rate. An 8-point human VISTA titration ([…]) was prepared in PBST at pH 7.4, 6.9, 6.45, and 6.0. Titrations were injected over the captured antibodies for 180 seconds at 30 µL/min. Sensorgrams were fit to a 1:1 binding model in T200 evaluation software and the kinetic constants were reported.
Each table reports the data at one of the four tested pHs (7.4, 6.9, 6.45, and 6.0, respectively). The 8-point hVISTA titration used in these assays was chosen to provide increased confidence in kinetic values reported at neutral pH conditions. A relatively stringent cutoff for non-binding was applied in this assay. Certain progeny of P1-061029 antibody (P1-068757, ‘759, ‘765, ‘771, and ‘775) show no binding to hVISTA at micromolar concentrations at pH 7.4, while ‘761 and ‘767 show no binding to hVISTA at 100 nM at pH 7.4 but do show binding to hVISTA at micromolar concentrations.

[3] = target: T1, monovalent hVISTA-ECD (amino acids …); test: SPR, Ab on Protein A, hVISTA 100-7.8 nM, pH 7.4
Method: as §1

[4] = target: T1, monovalent hVISTA-ECD (amino acids …); test: SPR 37C, Ab on Protein A, pH 6.0

B2: P1-077875 (P1-068748 H31S H32Y) (antibody, V domains shown)
VH: QVQLVESGGGVVQPGRSLRLSCAASGFTFSSYAMHWVRQAPGKGLEWVAIIWYDGSNDDYADSVKGRFTISRDNSKNTLYLQMNSLRAEDTAVYYCARDSGFYDSYYFDYWGQGTLVTVSS
VL: EIVLTQSPATLSLSPGERATLSCRASQSVSSSYLAWYQQKPGQAPRLLIYDASNRATGIPARFSGSGSGTDFTLTISSLEPEDFATYYCQQYNSYPYTFGQGTKLEIK
fold improvement of off-rate against the '748 antibody [4]: ≤ 2 fold

B3: P1-077869 (P1-068748 D57K) (antibody, V domains shown)
VH: B2 VH with S31H, Y32H, D58K
VL: B2 VL
fold improvement of off-rate against the '748 antibody [4]: ≤ 2 fold

B6: P1-077883 (P1-068748 H31S D57K) (antibody, V domains shown)
VH: B2 VH with Y32H, D58K
VL: B2 VL
fold improvement of off-rate against the '748 antibody [4]: ≤ 2 fold

More lines, now with the values ahead:

Kd [1]: 1400 nM | koff [1]: 0.032 s⁻¹ | kon [1]: 24000 M⁻¹ s⁻¹ | 7.4 KD/ 6.0 KD [2]: 258 | 7.4 kd/ 6.0 kd [2]: 14.2 | Kd [3]: 2700 nM | koff [3]: 0.038 s⁻¹ | kon [3]: 14000 M⁻¹ s⁻¹
B1: P1-72000 (P1-061029_F100fE_V102D) (antibody, V domains shown)
VH: EVQLVESGGGLVQPGKSLRLSCAASGFTLDDYAMHWVRQAPGKGLEWVSGINWNSANIGYADSVKGRFTISRDNAKNSLYLQMNSLRTEDTALYYCAKVPGYSGGWIDAEDDWGQGTMVTVSS
VL: not shown
notes: also called P1-072000-3

fold improvement of off-rate against the '748 antibody [4]: ≤ 2 fold
B4: P1-077877 (P1-068748 H32Y D57K) (antibody, V domains shown)
VH: B2 VH with S31H, D58K
VL: B2 VL
notes: the sister clones carry the VL of P1-061015

fold improvement of off-rate against the '748 antibody [4]: ≤ 2 fold
B5: P1-077865 (P1-068748 H31S) (antibody, V domains shown)
VH: B2 VH with Y32H
VL: B2 VL

fold improvement of off-rate against the '748 antibody [4]: ≤ 2 fold
B7: P1-077867 (P1-068748 H32Y) (antibody, V domains shown)
VH: B2 VH with S31H
VL: B2 VL
